Results from patent US20170173114A1, “METHODS AND COMPOSITIONS FOR INDUCTION OF UCP1 EXPRESSION” (Joslin Diabetes Center, Inc., priority 2014, published 2017).
“Also recorded” adds a separate entry of the source.

Assays:
UCP1 and PTGS2 = UCP1 and PTGS2 mRNA in WT-1 cells undergoing adipocyte differentiation; assay type: cell-based, murine; settings: after induction media; 200 ng/mL FGF or 3.3 nM BMP7, 2 days
Method: In a separate experiment investigating the ability of FGF proteins to induce UCP1 expression in cells undergoing adipocyte differentiation, WT-1 preadipocyte cells were differentiated by culturing in growth media supplemented with insulin (20 nM) and triiodothyronine (T3, 1 nM) for 3 days, followed by incubation in an induction media (growth medium supplemented 20 nM insulin, 1 nM T3, 0.5 mM isobutyl-methylxanthine, 5 μM dexamethasone) for 2 days. The cell were then exposed to BMP7 (3.3 nM) or 200 ng/mL of FGF2, FGF6 or, FGF9 in growth media supplemented with insulin (20 nM) and triodothyronine (T3, 1 nM) for 2 additional days. Cells were harvested and UCP1 and PTGS2 mRNA expression levels were determined according to the quantitative RT-PCR assay described above. Experiments were performed in triplicate and the data presented as mean+/−SEM.

UCP1 [1] = assay: UCP1 expression in immortalized human brown fat progenitors; assay type: cell-based
Method: Primary stromal-vascular fraction (SVF) from human neck fat was isolated as described previously (Cannon and Nedergaard, Physiol Rev, 84: 277-359, 2004). Briefly, freshly resected superficial fat (pooled subcutaneous and subplatysmal) and fat located in the deeper neck regions (pooled carotid sheath, longus colli and prevertebral) were collected, minced and digested using collagenase 1 (2 mg/mL in PBS with the addition of 3.5% BSA; Worthington Biochemical Corporation, Lakewood, N.J.), and the SVF was isolated. SVF cells were plated and grown in high glucose Dulbecco's modified Eagle's medium (DMEM/H) supplemented with 10% (v/v) fetal bovine serum (FBS) and 1% penicillin/streptomycin. For adipocyte differentiation, cells were grown to confluent for 6 days (day 6) and then exposed to adipogenic induction mixture in DMEM/H medium containing isobutylmethylxanthine (0.5 mM), dexamethasone (0.1 μM), human insulin (0.5 μM; Roche Applied Science, Indianapolis, Ind.), T3 (2 nM), indomethacin (30 μM), pantothenate (17 μM), biotin (33 μM) and 2% FBS for another 12 days (referred as day 18). Induction medium was changed every 3 days until collected.
Primary SVF cells were immortalized with human telomere reverse transcriptase (hTERT) as described previously (Tchkonia, T., et al. Diabetes 55, 2571-2578, 2006). […]

UCP1 [2] = assay: UCP1 mRNA expression in SVF cells from interscapular brown adipose tissue (BAT-SVF); assay type: cell-based, C57BL/6 mice; settings: growth media, 3 days; vs control
Method: Eight 6-week old C57BL/6 male mice were sacrificed. Interscapular BAT and axillary subcutaneous WAT were removed, minced and digested with 1 mg/ml collagenase for 45 minutes at 37° C. in DMEM/F12 media, containing 1% BSA and antibiotics. Digested tissues were filtered through sterile 150 μm nylon mesh and centrifuged at 250×g for 5 minutes. The floating fractions consisting of adipocytes were discarded and the pellets representing the SVF were then resuspended in erythrocyte lysis buffer (154 mM NH4Cl, 10 mM KHCO3, 0.1 mM EDTA) for 10 minutes to remove red blood cells. The cells were further centrifuged at 500×g for 5 minutes, plated at 8×10^5 cells/well of a 24-well plate and grown at 37° C. in DMEM/F12 supplemented with 10% FBS at 37° C.
To determine if FGF6 treatment of primary adipose progenitors could also increase UCP1 expression as observed in Example 1, stromo-vascular fraction (SVF) cells, which comprise adipocyte progenitors, were isolated from interscapular brown adipose tissue (BAT-SVF) and subcutaneous white adipose tissue (SQ-SVF). SVF cells were subsequently treated with FGF6 or FGF21 in growth media (DMEM+10% FBS) for 3 days, followed by determination of UCP1 expression. As described in FIGS. 9A and 9B, FGF21 treatment had little effect on UCP1 mRNA expression in either type of SVF cells, as compared to the control. […]

[3] = Insulin tolerance test in Chow or high fat diet mice; assay type: in vivo, C57BL6 mice; settings: Chow or HFD mice, 0.5 mg/kg FGF6 s.c. and 1.5 U insulin per kg
Method: In addition to testing the impact of FGF6 on glucose tolerance, an insulin tolerance test was also performed using Chow fed and Obese (HFD) mice. Animals were fasted for two hours before receiving an intraperitoneal dose of 1.5 IU of recombinant human insulin (Humalog; Eli Lilly and Company, Indianapolis, Ind.). Blood samples were collected from the tail vein for measurement of blood glucose levels using a glucometer before and 15, 30, and 60 min after injections of FGF6 and the buffer control.

B1: FGF6: fibroblast growth factor 6; recombinant human FGF from R&D Systems, or mouse FGF6 cDNA overexpressed by lentiviral vector (protein)
chain: KRQRRLYCNVGIGFHLQVLPDGRISGTHEENPYSLLEISTVERGVVSLFGVRSALFVAMNSKGRLYATPSFQEECKFRETLLPNNYNAYESDLYQGTYIALSKYGRVKRGSKVSPIMTVTHFLPRI
- PTGS2 mRNA expression in cells undergoing adipocyte differentiation (UCP1 and PTGS2): able to induce
- UCP1 mRNA expression in cells undergoing adipocyte differentiation (UCP1 and PTGS2): able to induce
- increase in UCP1 expression in human brown fat precursors (UCP1 [1]): ~60 fold
- increase of UCP1 mRNA expression in BAT-SVF (UCP1 [2]): 4 fold
- glucose levels in insulin tolerance test (insulin sensitivity) [3]: lower levels of glucose; also recorded: enhanced insulin sensitivity
